# Reference: US20240109972A1, “ANTIBODY AND TAXANE COMBINATION THERAPY” (Genmab A/S, priority 2020, published 2024)
# Entries after “also recorded” stand apart in the source; their conditions may differ.
# Legend:
# interferon-gamma (IFN-γ) = assay: Serum interferon-γ levels in cancer patients after GEN1046 (MSD multiplex immunoassay); assay type: in vivo, human
# Experimental: Serum levels of IFN-γ were measured by a Meso Scale Discovery (MSD) multiplex immune-assay (cat. no. K15209G) following the manufacturer's instructions.
# [1] = test system: effector memory CD8 T cells (CD8+CD45RA−CCR7− T cells); assay: Proliferating (Ki67+) effector memory CD8 T cells in peripheral blood of patients (flow cytometry); conditions: human, in vivo
# Experimental: 100 μL of whole blood was added to fluorochrome-conjugated monoclonal antibodies that bind specifically to cell surface antigens: CD45RA-FITC (clone LEU-18, BD Biosciences cat. no. 335039), CCR7-BV510 (clone 3D12, BD Biosciences, cat. no. 563449), CD8-PerCP-Cy5.5 (clone RPA-T8, BD Biosciences, cat. no. 560662). After incubation on ice, the stained samples were treated with FACS Lysing Solution (BD Biosciences, Catalog No 349202) to lyse erythrocytes. Excess antibody and cell debris were removed by washing with Stain Buffer (BD Biosciences, cat. no. 554656). Following lyse/wash, cells were fixed and permeabilized by incubation with Permeabilizing Solution 2 buffer (BD Biosciences, cat. no. 340973). Next, cells were washed and resuspended in Stain Buffer and incubated on ice with antibody to Ki67 (BV421 B56, BD Biosciences, cat. no. 562899) to detect proliferating cells. After incubation, excess antibody was removed by washing with Stain Buffer. Cells were resuspended in Stain Buffer and acquired on a BD FACSCanto™ II flow cytometer (Becton Dickinson) within 1 hour of staining.
# [2] = GEN1046 Phase I dose escalation, safety and dose finding; assay type: in vivo
# Excerpt: The recommended phase 2 dose (RP2D) was based on a review of the available safety and dosing information and could be lower than the maximum tolerated dose (MTD).
# metastatic NSCLC = assay: GEN1046 in combination with docetaxel in metastatic NSCLC subjects, efficacy (RECIST v1.1); assay type: in vivo, human; conditions: six subjects dosed with GEN1046 and 75 mg/m^2 Docetaxel
# Experimental: Docetaxel was administered at a dose of 55 mg/m^2 or 75 mg/m^2 depending on the number of prior Dose Limiting Toxicities observed. The maximum tested dose of docetaxel was be 75 mg/m^2.
# The following inclusion criteria applied to the combination arm (NSCLC): GEN1046 in combination with docetaxel: • NSCLC subjects of any histology may be enrolled. Subjects with a histological or cytological diagnosis of non-squamous NSCLC must not have an EGFR-sensitizing mutation and/or ALK translocation/ROS1 rearrangement. EGFR sensitizing mutations are those mutations that are amenable to treatment with an approved TKI. Documentation of EGFR and ALK status should be available per local assessment.
# In one of the six patients the first post-baseline scan was indicative of response according to RECIST Criteria v1.1.
substance,measurement,setting,value
"GEN1046: PD-L1×4-1BB bispecific antibody: PD-L1-547-FEAL combined with CD137-009-HC7LC2-FEAR (SEQ ID NOs: 1, 5, 21, 19; 8, 12, 22, 20)",Dose levels with higher magnitude and consistent modulation of peripheral pharmacodynamic endpoints,interferon-gamma (IFN-γ); IFNγ and proliferating Ki67+ effector memory CD8+ T cells,≥ 200 mg
same,Dose levels with maximal increases of IFN-γ,interferon-gamma (IFN-γ); first treatment cycle,50 mg and 80 mg
same,Increase of IFN-γ levels,"interferon-gamma (IFN-γ); first treatment cycle, across all dose levels tested",more than 2 fold
same,Cohort with maximal and more consistent modulation of proliferating CD8+ effector memory T cells,[1],80 mg
same,Doses administered safely,[2]; 1Q3W,up to 1200 mg
same,Patients with dose limiting toxicities (DLTs),[2]; dose escalation,Six
same,Severity of most adverse events,[2]; dose escalation,mild to moderate
same,Treatment-related bilirubin increases or Grade 4 transaminase elevations,[2]; dose escalation,No treatment-related bilirubin increases or Grade 4 transaminase elevations were observed
same,Maximum tolerated dose (MTD),"[2]; dose escalation, 1Q3W",not reached; also recorded: no MTD was determined
same,Most frequent adverse events,[2]; patients receiving GEN1046,"transaminase elevations, followed by hyperthyroidism, fatigue, nausea, asthenia and neutrophil count decrease"
same,Patients whose first post-baseline scan was indicative of response (RECIST v1.1),metastatic NSCLC,one
